B1: O60342 30-44 (peptide)
chain: PSARPARPPRVRGP
B2: O75916 510-523 (peptide)
chain: PSRFIRRPSTTISP
B3: O95327 205-218 (peptide)
chain: PTSSPHRPHRLPLA
B4: Q93074 1800-1813 (peptide)
chain: PRVDPYRPVRLPMQ
B5: Q9HBF9 133-146 (peptide)
chain: PSPNFKRPYQRFQW
B6: Q9GZW5 261-274 (peptide)
chain: PRPTPRRPRPRLAR
B7: Q99973 2038-2051 (peptide)
chain: PRQLLTRPHKAEDF
B8: O95416 4-17 (peptide)
chain: PSDHIKRPMNAFMV
B9: O60904 189-203 (peptide)
chain: PSAPPAKPPSTQRA
B10: Q96DL6 53-67 (peptide)
chain: PSLRPLKPPPPPRQ
B11: Q8TDP0 823-837 (peptide)
chain: PSPSPARPPGTSPP
B12: O75817 27-40 (peptide)
chain: PSRLPRRPNDIYVN
B13: Q9NRR6 185-199 (peptide)
chain: PSLLPPRPPPALSL
B14: O75064 398-411 (peptide)
chain: PRTLPRRPYKVLLA
B15: Q13601 2-15 (peptide)
chain: ASPSLERPEKGAGK
B16: Q9BVH8 774-788 (peptide)
chain: PTEGPRRPPPRPPS
B17: P43681 443-457 (peptide)
chain: PSPGPSRPPHGTQA
B18: Q9UPX1 609-622 (peptide)
chain: PSPALPRPSRSSPG
B19: Q9NTY7 879-893 (peptide)
chain: ASQSPKKPPAKDPL
B20: P13498 150-164 (peptide)
chain: PSNPPPRPPAEARK
B21: Q8WVQ3 114-128 (peptide)
chain: PSPLPPKPPFPGPG

Columns and labels:
[1] = target: T1, amphyphisin SH3 (AMPH_HUMAN), P49418; test: SPOT array
T1 chain: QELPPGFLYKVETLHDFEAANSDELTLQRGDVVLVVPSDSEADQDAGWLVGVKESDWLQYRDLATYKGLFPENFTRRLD

[2] = target: endophilin SH3 (SH3G2_HUMAN), Q99962; test: SPOT array

| Binder | normalised SPOT signal, Boehringer light units (BLU); mean over the file's lines of this peptide [1] | normalised SPOT signal, Boehringer light units (BLU); mean over the file's lines of this peptide [2] |
| --- | --- | --- |
| B1 | 16100 | 21500 |
| B2 | 42 | 364 |
| B3 | 248 | 166 |
| B4 | 327 | 175 |
| B5 | 43.9 | 71.3 |
| B6 | 928 | 1950 |
| B7 | 104 | 198 |
| B8 | 16.2 | 85 |
| B9 | 53.9 | 254 |
| B10 | 876 | 4590 |
| B11 | 31.2 | 67.6 |
| B12 | 38.8 | 41.9 |
| B13 | 82.9 | 5800 |
| B14 | 109 | 865 |
| B15 | 15 | 175 |
| B16 | 3310 | 3050 |
| B17 | 47 | 128 |
| B18 | 778 | 2060 |
| B19 | 57.6 | 60.6 |
| B20 | 182 | 991 |
| B21 | 43.5 | 843 |
